4 molecules from patent US20220363740A1 (Sanofi, published 2022) can be followed below.

Assay [1] addresses T1, Human TGFβ1 (human, UniProt P01137 279-390).
The target of assay [2] is Human TGFβ1 (human) (UniProt P01137). In words: SPR (Biacore), apparent KD, 544 RU TGFβ1 immobilized on the chip. On the technique in general: SPR reads the build-up and loss of mass on a sensor chip optically.
For assay [3] the target is unchanged. The experiment in a line: SPR (Biacore), apparent KD, 24 RU TGFβ1 immobilized on the chip.
Assay [4] shares this target. In words: SPR (Biacore), apparent KD, 105 RU TGFβ1 immobilized on the chip.
The target in assay [5] is T1, Human TGFβ1. The experiment in a line: SPR.
The target of assay [6] is T1, Human TGFβ1. The experiment in a line: SPR (Biacore), apparent KD, 105 RU TGFβ1 immobilized on the chip.
For assay [7], the target named is T1, Human TGFβ1. The experiment in a line: SPR (Biacore), apparent KD, 24 RU TGFβ1 immobilized on the chip.
The target of assay [8] is T1, Human TGFβ1. The experiment in a line: cell-based or functional assay.
Assay [9] concerns the target T1, Human TGFβ1. The experiment in a line: SPR (Biacore), apparent KD, 544 RU TGFβ1 immobilized on the chip.

Where two headings read alike, the source gives them in different places.

T1 sequence (P01137 279-390 limits assumed): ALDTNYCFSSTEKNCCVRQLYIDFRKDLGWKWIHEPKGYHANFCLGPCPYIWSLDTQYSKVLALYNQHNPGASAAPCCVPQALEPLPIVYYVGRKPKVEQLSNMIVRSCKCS
Sequence of Human TGFβ1 (human) (P01137 279-390 limits assumed): as above

As for GC1008 (antibody), in [1], the IC50 (read off the curve), TGFβ1-stimulated IL-11 production (A549 bioassay) was 0.01 nM.

Take scFv CAT191 diabody (scFv diabody 5aa): the Kd was 4.8 nM in assay [2], 4.1 nM in assay [3] and 3.9 nM in assay [4].

B1: Leucine zipper peptide-derived dimer (other)
scFv: EVQLVESGGGVVQPGRSLRLSCAASGFTFSSYGMHWVRQAPGKELEWVAVISYDGSIKYYADSVKGRFTISRDNSKNTLYLQMNSLRAEDTAVYYCARTGEYSGYDTDPQYSWGQGTTVTVSSSGGGSGGGGSGGGGSEIVLTQSPSSLSASVGDRVTITCRSSQGIGDDLGWYQQKPGKAPILLIYGTSTLQSGVPSRFSGSGSGTDFTLTINSLQPEDFATYYCLQDSNYPLTFGGGTRLEIKRAAAHHHHHHGAAEQKLISEEDLNGAAPKPSTPPGSSGELEELLKHLKELLKGPRKGELEELLKHLKELLKGGAPGGHHHHHH
notes: CAT191 scFv fused to tags and a leucine zipper peptide; Expressed in E. coli and only partially purified when tested
With B1, the binding result in assay [5] is listed as “binds”.

B2: CAT191(scFv) (scFv)
scFv: EVQLVESGGGVVQPGRSLRLSCAASGFTFSSYGMHWVRQAPGKELEWVAVISYDGSIKYYADSVKGRFTISRDNSKNTLYLQMNSLRAEDTAVYYCARTGEYSGYDTDPQYSWGQGTTVTVSSSGGGSGGGGSGGGGSEIVLTQSPSSLSASVGDRVTITCRSSQGIGDDLGWYQQKPGKAPILLIYGTSTLQSGVPSRFSGSGSGTDFTLTINSLQPEDFATYYCLQDSNYPLTFGGGTRLEIK
notes: Parental scFv; also called scFv(CAT191)
Regarding B2, the Kd is 1.6 nM in assay [6], 1.7 nM in assay [7] and 1.3 nM in assay [9]. Also, the “IC50 (read off the curve), TGFβ1-stimulated IL-11 production (A549 bioassay)” value in assay [8] was roughly 0.4 nM.
